Data published in US20060252118.

What was measured:
[1] = biological target: T1, Peptide 1 (phosphoserine peptide) H-Val-Pro-Ile-Pro-Gly-Arg-Phe-Asp-Arg-Arg-Val-pSer-Val-Ala-Ala-Glu-NH2
T1 chain: VPIPGRFDRRVSVAAE

[2] = biological target: T2, Peptide 2 (phosphothreonine peptide) H-Thr-Ala-Asp-Ser-Gln-His-Ser-pThr-Pro-Pro-Lys-Lys-Lys-Arg-Lys-Val-Glu-OH
T2 chain: TADSQHSTPPKKKRKVE

[3] = biological target: T3, Peptide 3 (phosphotyrosine peptide) H-Glu-Trp-Met-Arg-Glu-Asn-Ala-Glu-pTyr-Leu-Arg-Val-Ala-OH
T3 chain: EWMRENAEYLRVA

[4] = biological target: Serine/threonine (Ser/Thr) phosphorylated Myelin Basic Protein substrate (33P labeled)
[5] = biological target: Tyrosine (Tyr) phosphorylated Myelin Basic Protein substrate (33P labeled)
Chain of Tyrosine (Tyr) phosphorylated Myelin Basic Protein substrate (33P labeled) (P02687 whole entry): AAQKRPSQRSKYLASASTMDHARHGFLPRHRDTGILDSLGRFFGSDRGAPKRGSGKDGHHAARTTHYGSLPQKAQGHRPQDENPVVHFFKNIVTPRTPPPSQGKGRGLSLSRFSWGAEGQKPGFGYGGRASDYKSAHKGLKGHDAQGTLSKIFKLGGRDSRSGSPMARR

Chain of Serine/threonine (Ser/Thr) phosphorylated Myelin Basic Protein substrate (33P labeled) (P02687 whole entry): as above

B1: thermolabile Antarctic phosphatase (TAP), truncated, with N-terminal His-tag (expressed from pEGTAP7.4.1) (protein)
chain: MHHHHHHMKLKKIVFTLIALGLFSCKTTSVLVKNEPQLKTPKNVILLISDGAGLSQISSTFYFKEGTPNYTQFKNIGLIKTSSSREDVTDSASGATAFSCGIKTYNAAIGVADDSTAVKSIVEIAALNNIKTGVVATSSITHATPASFYAHALNRGLEEEIAMDMTESDLDFFAGGGLNYFTKRKDKKDVLAILKGNQFTINTTGLTDFSSIASNRKMGFLLADEAMPTMEKGRGNFLSAATDLAIQFLSKDNSAFFIMSEGSQIDWGGHANNASYLISEINDFDDAIGTALAFAKKDGNTLVIVTSDHETGGFTLAAKKNKREDGSEYSDYTEIGPTFSTGGHSATLIPVFAYGPGSEEFIGIYENNEIFHKILKVTKWNQ
[1]
  units of TAP required to completely remove the phosphates from 5 µg of the peptide in 10 mins (Cap-HPLC): 2.5 units and 10 units of TAP were required to completely remove the phosphates from the phospho-serine and phospho-threonine peptides respectively
[2]
  units of TAP required to completely remove the phosphates from 5 µg of the peptide in 10 mins (Cap-HPLC): 2.5 units and 10 units of TAP were required to completely remove the phosphates from the phospho-serine and phospho-threonine peptides respectively
[3]
  units of enzyme required to remove all the phosphates from 5 µg of the peptide in 10 mins (Cap-HPLC): only 0.02 units of enzyme being required to remove all the phosphates from 5 µg of the peptide in 10 mins
[4]
  specific activity (release of 33P from phosphorylated MyBP, TCA-soluble counts): 1910 nmol/min/mg
[5]
  specific activity (release of 33P from phosphorylated MyBP, TCA-soluble counts): also greater than the specific activity for CIAP
